The nature of this data set: yeast display, Sf9 membrane polyspecificity reagent, FACS + sequencing; frameworks hold sequencing errors. The gist of the method: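 Galactose-induced (36–48 hours) yeast carrying a synthetic nanobody display library were exposed to 10% biotinylated, detergent-solubilized Sf9 membrane reagent at 4 °C for 1 hour. FACS followed streptavidin microbead enrichment, using low and high (top ~1%) gates for expression (anti-HA) and reagent binding (streptavidin). Colony PCR, MiSeq 2 × 250 sequencing and CDR-length filtering followed. Labels for polyreactivity reflect the gate of origin.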
On to “QVQLVESGGGLVQAGGSLRLSCAASGFTFQYYAMGWYRQAPGKERELVAAISWSGDSTYYADSVKGRITISRENAKNSVYLQMNSLKPEDTAVYYCAVYYTRGYDYWGQGTQVTVSS”, for which the “polyreactivity (PSR sort gate)” value is reported as “high polyreactivity”.

Consider “QVQLVESGGGLVQAGGSLRLSCAASGFTFQYYSMGWYRQAPGKERELVAAISSSGGSTYYADSVKGRFTISRDNAENTVYLQMNSLKPEDTAVYYCAIRVSTYGFSGYDYWGQGTQVTVSS”, for which the “polyreactivity (PSR sort gate)” value is on record as “high polyreactivity”.

Regarding “QVQLVESGGGLVQAGGSLRLSCAASGFTFRANGMGWYRQAPGKERELVATITSGGTTNYADSVKGRFTISRDNAKITVYLQMNSLKPEDTAVYYCAKAFRHSTFFAPYDYWRQGTQVTVSS”, the “polyreactivity (PSR sort gate)” value is given as “low polyreactivity”.

In the case of “QVQLVESGGGLVQAGGSLRLSCAASGFTFRAYAMGWYRQAPGKERELVAAITRSGVSTYYADSVKGRFTISRDNAKNTVYLQMNSLKPEDTAVYYCAAVAQRVGRSGTIEGDSWGQGTQVTVSS”, the “polyreactivity (PSR sort gate)” value is listed as “high polyreactivity”.

As to “QVQLVESGGGLVQAGGSLRLSCAASGFTFRFYAMGWYRQAPGKERELVATISSRGGRTYYADSVKGRFTISRDNAKNTVYLQMNSLKPEDTAVYYCNKDLYRYPGYDYWGQGTQVTVSS”, the “polyreactivity (PSR sort gate)” value was “high polyreactivity”.

With “QVQLVESGGGLVQAGGSLRLSCAASGFTFRGYAMGWYRQAPGKERELVAAITSRGGTTYYADSVKGRFTISRDNAKNTVYLQMNSLKPEDTAVYYCATTGGYTRGIGWYNYWGQGTQVTVSS”, the “polyreactivity (PSR sort gate)” value was “high polyreactivity”.

Consider “QVQLVESGGGLVQAGGSLRLSCAASGFTFRINAMGWYRQAPGKERELVAVITGSGTSTYYADSVKGRFTISRDNAKNTVYLQMNSLKPEDTAVYYCAKRGFISQKYYYWGQGTQGTVSS”, for which the “polyreactivity (PSR sort gate)” value was “high polyreactivity”.

Turning to “QVQLVESGGGLVQAGGSLRLSCAASGFTFRIYAMGWYRQAPGKERELVAAITSGGRTYYADSVKGRFTISRDNAKNTVYLQMNSLKPEDTAVYYCAALYFTRDRYDYWGQGTQVTVSS”, the “polyreactivity (PSR sort gate)” value is “high polyreactivity”.

Turning to “QVQLVESGGGLVQAGGSLRLSCAASGFTFRKNDMGWYRQAPGKERELLAAISSGGGRTYYADSVKWRFTISRDNAKNTVYLQMNSLKQEDTAVYYCNADDGYYVGLSSAIYDYCGQGTQVTVSS”, the “polyreactivity (PSR sort gate)” value is reported as “high polyreactivity”.

For the sequence “QVQLVESGGGLVQAGGSLRLSCAASGFTFRLYDMGCYIQAPGKERELVAAISIRGGRTYYADSVKGRFTISRDNAKNTVYLQMNSLKPEDTAVYYCAAYSQYLKRDYWGQGTQVTVSS”, the “polyreactivity (PSR sort gate)” value is reported as “high polyreactivity”.

Take “QVQLVESGGGLVQAGGSLRLSCAASGFTFRNNAMGWYRQAPGKERELVAAISYSGGSTYYADSVKGRFTISRDNAKNTVYLQMNSLKPEDTAVYYCNPRRWSYLEYDYWGQGTQVTVSS”: the “polyreactivity (PSR sort gate)” value is recorded as “low polyreactivity”.

For “QVQLVESGGGLVQAGGSLRLSCAASGFTFRRNVIGWYRQAPGKERELVAAIRGSDGSTYYADSVKGRFTNSRDNAKNTVYLQMNSLKPEDTAVYYCNVVGIGLYRKMGYWGQGTQVTVSS”, the “polyreactivity (PSR sort gate)” value is on record as “high polyreactivity”.

Consider “QVQLVESGGGLVQAGGSLRLSCAASGFTFRRYAMGWYRQAPGKERELVAAISLRSGRTNYADSVKGRFTISRDNAKNTVYLQMNSLKPEDTAVYYCAAGLYGKRAGTSYGYDYWGQGTQVTVSS”, for which the “polyreactivity (PSR sort gate)” value was “high polyreactivity”.

Consider “QVQLVESGGGLVQAGGSLRLSCAASGFTFRRYAMGWYRQAPGKERELVAAISRGSSTYYADSVKGRFTISRDNAKNTVYLQMNSLKPEDTAVYYCAADWEQLRGTMDYWGQGTQVTVSS”, for which the “polyreactivity (PSR sort gate)” value was “high polyreactivity”.

For the sequence “QVQLVESGGGLVQAGGSLRLSCAASGFTFRRYAMGWYRQAPGKERELVAAISTSGGRTYYADSVKGRFTISRDYAKITVYLQMNSLKPEDSAVYDCNAAGGYRTSPSDYWGQGTQVTVSS”, the “polyreactivity (PSR sort gate)” value is on record as “high polyreactivity”.

Regarding “QVQLVESGGGLVQAGGSLRLSCAASGFTFRSNAMGWYRQAPGKERELVAAISYSGDSTYYADSVKGRFTISRDTAKNTVYLQMNSLKPEDTAVYYCAADGYDQWGRVGVYLIWTSYDYWGQGTQVTVSS”, the “polyreactivity (PSR sort gate)” value is “high polyreactivity”.

“QVQLVESGGGLVQAGGSLRLSCAASGFTFRSNAMGWYRQAPGKERELVAAISYSGGDTYYADSVKGRFTISRDNAKNTVFLQMNSLKPEDTAVYYCAADDPASPLGEYWGQGTQVTVSS”: the “polyreactivity (PSR sort gate)” value is listed as “low polyreactivity”.

For the sequence “QVQLVESGGGLVQAGGSLRLSCAASGFTFRSNVMGWYRQAPRKERELVAAIRWSGGSTYYADSVKGRFTISRDNAMNTVYLQMNSLKPDDTAVYYCNARIYRSGYKFNYWGQGTQVTVSS”, the “polyreactivity (PSR sort gate)” value is recorded as “high polyreactivity”.

Regarding “QVQLVESGGGLVQAGGSLRLSCAASGFTFRTYAMGWYRQAPGKERELVAGISQGGGSTYYADSVKGRFTISRDNAKNTVYLQMKSLKTEVTAVYYCAKARNSNARFGYWGQGTQVTVSS”, the “polyreactivity (PSR sort gate)” value is listed as “high polyreactivity”.

Turning to “QVQLVESGGGLVQAGGSLRLSCAASGFTFRVNAMGWYRQAPGKERELVARISSSGGITYYADSVKGRFTISRDNAKNTVYLQMNSLKPEDTAVYYCAKEVYSGYSTRARSRYYEYYYWGQGTQVTVSS”, the “polyreactivity (PSR sort gate)” value is “high polyreactivity”.

Turning to “QVQLVESGGGLVQAGGSLRLSCAASGFTFRVNAMGWYRQAPGKESELVAAISSGGGITYYADSVKGRFTISRDNAKNTVYLQMNSLKPEDTAVYYCAARENRYLERDYWGQGTQVTVSS”, the “polyreactivity (PSR sort gate)” value is given as “low polyreactivity”.

As to “QVQLVESGGGLVQAGGSLRLSCAASGFTFRVYAMGWYRHAPGKERELVAAITKRGGSTYYADSVKGRFTISRDNAKNTVYLQMNSLKPEDTAVYYCAAVNVRHFSYWGQGTQVTVSS”, the “polyreactivity (PSR sort gate)” value is reported as “high polyreactivity”.

As for “QVQLVESGGGLVQAGGSLRLSCAASGFTFRVYAMGWYRQAPGKERELVAAISKSGGSTYYADSVKGRFTISRDNAKNTVYLQMNSLKPEDTAVYYCAKVSQVRGFYYWGQGTQVTVSS”, the “polyreactivity (PSR sort gate)” value is “high polyreactivity”.

Regarding “QVQLVESGGGLVQAGGSLRLSCAASGFTFRVYAMGWYRQAPGKERELVAAISSGGSTNYADSVKGRFTISRDNAKNTVYLQMNSLKPEDTAVYYCAARTYRWYGPGSYGYWGQGTQVTVSS”, the “polyreactivity (PSR sort gate)” value is reported as “high polyreactivity”.

Regarding “QVQLVESGGGLVQAGGSLRLSCAASGFTFRVYAMGWYRQAPGKERELVAAITKRGGSTYYADSVRGRFTISRDNAKNTVYLQMNSLKPEDTAVYYCATENTPHYASHGYWGQGTQVTVSS”, the “polyreactivity (PSR sort gate)” value is reported as “high polyreactivity”.

As for “QVQLVESGGGLVQAGGSLRLSCAASGFTFRWYAMGWYRQAPGKERELVAAITYRGGRTYYADSVKGRFTISRDNAKNTVYLQMNSLKPEDTAVYYCAAKLSLNGRYDYWGQGTQVNVSS”, the “polyreactivity (PSR sort gate)” value is listed as “high polyreactivity”.

Consider “QVQLVESGGGLVQAGGSLRLSCAASGFTFRWYAMRWYRQAPGKERELVADITRSGDTNYAYSVKGRFTISRDNAKNTVYLQMKSQKPEDTAVYSCAKDWAYRRHWVGFYYWGQGTQVTVSA”, for which the “polyreactivity (PSR sort gate)” value is given as “low polyreactivity”.

As to “QVQLVESGGGLVQAGGSLRLSCAASGFTFRWYTMGWYRQAPGKERELVASIDWSGGSTYYADSVKGRFTITRDNAKNTVYLQMNSLKAEDTAVYYCNAGSDIFWSASTYGYWGQGTQVTVSS”, the “polyreactivity (PSR sort gate)” value is “high polyreactivity”.

In the case of “QVQLVESGGGLVQAGGSLRLSCAASGFTFRYNAMGWYRQAPGKERELVAAISRSGGRTYYADSVKGRFTISRDNAKNTVYLQMNSLKPEDTAVYYCAAVAARITGYGYWGQGTQVTVSS”, the “polyreactivity (PSR sort gate)” value is on record as “high polyreactivity”.

For “QVQLVESGGGLVQAGGSLRLSCAASGFTFRYYAMGWYRQAPGKERELVAAIRRGGTTNYADSVKGRFTISRDNAKNTVYLQMKSLKPEDTAVYYCNAGRGYSVWASIYNSRPFDYWGQGTQVTVSS”, the “polyreactivity (PSR sort gate)” value was “high polyreactivity”.

For the origin of these results see the nanobody polyreactivity screen of Harvey et al. (2022).
